According to patent US20160108110A1 (Novartis, published 2016):

Legend:
[1] = target: T1, Human ANGPTL4(26-406)-FLAG-His6-Avi (human, UniProt Q9BY76 24-406, biotin on the C-terminal Avi tag in the biotinylated preparations (immobilised form in SET, ELISA and Octet)); assay: cell-based or functional assay
T1 sequence: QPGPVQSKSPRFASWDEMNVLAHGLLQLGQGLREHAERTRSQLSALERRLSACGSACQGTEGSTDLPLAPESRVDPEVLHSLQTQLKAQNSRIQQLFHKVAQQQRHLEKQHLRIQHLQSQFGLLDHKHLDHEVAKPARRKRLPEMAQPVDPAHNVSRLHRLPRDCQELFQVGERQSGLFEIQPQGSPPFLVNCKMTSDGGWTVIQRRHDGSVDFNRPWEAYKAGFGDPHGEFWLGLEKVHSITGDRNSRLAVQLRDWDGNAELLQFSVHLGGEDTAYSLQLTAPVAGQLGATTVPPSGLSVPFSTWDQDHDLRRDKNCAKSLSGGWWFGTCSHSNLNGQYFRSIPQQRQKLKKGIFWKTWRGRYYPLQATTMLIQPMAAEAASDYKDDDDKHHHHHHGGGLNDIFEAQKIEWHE

[2] = target: T2, ANGPTL4-derived peptide P1 (human); assay: peptide array, immobilised linear 15-mers
T2 construct: linear 15-amino-acid peptide derived from the N-terminal coiled coil domain of human ANGPTL4
T2 peptide: GPVQSKSPRFASWDE
Experimental: (§1) The ability of selected antibodies of invention, namely MOR022765 and MOR022770, to bind to linear 15-amino-acid peptides derived from the N-terminal coiled coil domain of human ANGPTL4 was tested. The peptides were immobilized on a glass surface, and the ability of MOR022765 and MOR022770 to bind to the immobilized peptides was evaluated using experimental methods optimized for linear peptide epitope mapping at JPT Peptide Technologies (Berlin, Germany).

[3] = target: T3, ANGPTL4-derived peptide P4 (human); assay: peptide array, immobilised linear 15-mers
T3 peptide: FASWDEMNVLAHGLL
Experimental: as §1

[4] = target: T4, ANGPTL4-derived peptide P5 (human); assay: peptide array, immobilised linear 15-mers
T4 peptide: WDEMNVLAHGLLQLG
Experimental: as §1

[5] = target: T5, ANGPTL4-derived peptide P6 (human); assay: peptide array, immobilised linear 15-mers
T5 peptide: MNVLAHGLLQLGQGL
Experimental: as §1

[6] = target: T6, ANGPTL4-derived peptide P7 (human); assay: peptide array, immobilised linear 15-mers
T6 peptide: LAHGLLQLGQGLREH
Experimental: as §1

[7] = target: T7, ANGPTL4-derived peptide P26 (human); assay: peptide array, immobilised linear 15-mers
T7 peptide: VLHSLQTQLKAQNSR
Experimental: as §1

[8] = target: T8, ANGPTL4-derived peptide P30 (human); assay: peptide array, immobilised linear 15-mers
T8 peptide: NSRIQQLFHKVAQQQ
Experimental: as §1

[9] = target: T9, ANGPTL4-derived peptide P31 (human); assay: peptide array, immobilised linear 15-mers
T9 peptide: IQQLFHKVAQQQRHL
Experimental: as §1

[10] = target: T10, ANGPTL4-derived peptide P36 (human); assay: peptide array, immobilised linear 15-mers
T10 peptide: EKQHLRIQHLQSQFG
Experimental: as §1

[11] = target: T1, Human ANGPTL4(26-406)-FLAG-His6-Avi; assay: cell-based or functional assay; remark: listed apart in the source
[12] = target: T11, Human ANGPTL3(17-460)-FLAG-His-Avi (human, UniProt Q9Y5C1 17-460, biotin on the C-terminal Avi tag); assay: direct ELISA on streptavidin-coated MSD plate: biotinylated antigen immobilised at 1 nM, antibody at 1 nM, detection with Sulfo-tagged goat anti-human IgG
T11 construct: also called full length human ANGPTL3; hANGPTL3
T11 sequence: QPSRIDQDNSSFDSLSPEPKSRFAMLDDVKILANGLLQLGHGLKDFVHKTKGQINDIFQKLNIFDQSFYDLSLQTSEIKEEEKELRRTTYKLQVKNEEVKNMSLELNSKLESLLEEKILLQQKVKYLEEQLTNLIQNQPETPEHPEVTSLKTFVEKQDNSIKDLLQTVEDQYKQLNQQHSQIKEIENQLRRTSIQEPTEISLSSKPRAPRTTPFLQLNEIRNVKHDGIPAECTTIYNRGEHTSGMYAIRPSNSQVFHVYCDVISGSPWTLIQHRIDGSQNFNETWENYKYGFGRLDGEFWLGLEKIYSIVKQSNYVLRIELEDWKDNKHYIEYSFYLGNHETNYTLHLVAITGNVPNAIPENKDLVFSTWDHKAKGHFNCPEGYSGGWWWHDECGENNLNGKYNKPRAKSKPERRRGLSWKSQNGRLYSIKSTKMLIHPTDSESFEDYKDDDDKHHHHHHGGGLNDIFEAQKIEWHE
Experimental: Direct ELISA assays were conducted to characterize antibody binding specificity of selected antibodies of the invention. The assay was performed as follows. A 384-well streptavidin-coated Meso Scale Discovery (MSD) plate was blocked by incubating the plate with 50 μL Blocking Buffer (PBS, pH 7.4, 5% w/v bovine serum albumin) per well at 22° C. for 1 hour with constant shaking (600 rpm). The blocked MSD plate was then washed 3 times with Wash Buffer (PBS, pH 7.4 and 0.05% v/v Tween-20) using a plate washer (BioTek). Following washing, biotinylated human ANGPTL4 proteins diluted in Assay Buffer (PBS, pH 7.4 without CaCl₂ or MgCl₂, 0.5% w/v fatty acid-free bovine serum albumin and 0.02% v/v Tween-20) were immobilized on the surface by incubation at 1 nM concentration (15 μL per well) at 22° C. for one hour: full length human ANGPTL4 (hANGPTL4), human ANGPTL4 coiled-coil domain (hANGPTL4-CCD) and full length human ANGPTL3 (hANGPTL3). The plate was then washed 3 times as described earlier. Antibody diluted to 1 nM concentration in Assay Buffer was then applied to the MSD plate […], and the plate was incubated for 1 hour at 22° C. with constant shaking (600 rpm). Bound antibodies were detected by adding 15 μL per well of a 1:500 dilution of Sulfo-tagged goat anti-human IgG. The plate was then incubated for one hour with constant shaking (600 rpm). The plate was washed 3 times, and then 15 μL/well of 1×MSD read buffer T was added and the plate was developed using a Sector Imager 6000 (Meso Scale Discovery). The data were transferred to Microsoft Excel for analysis and plotted using GraphPad Prism v6. […] An ANGPTL3-specific reference antibody was used as a positive control for the ANGPTL3 binding assay (FIG. 2).

[13] = target: T1, Human ANGPTL4(26-406)-FLAG-His6-Avi; assay: cell-based or functional assay; remark: listed apart in the source

B1: MOR022765 (antibody, human IgG1, lambda, V domains shown)
VH: EVQLVQSGAEVKKPGESLKISCKGSGYSFSTYWISWVRQMPGKGLEWMGIIDPSSSDTRYSPSFQGQVTISADKSISTAYLQWSSLKASDTAMYYCARVYGYVYMDVWGQGTLVTVSS
VL: SYELTQPLSVSVALGQTARITCSGDNLGKKYAYWYQQKPGQAPVLVIYDKTKRPSGIPERFSGSNSGNTATLTISRAQAGDEADYYCASYDWYSSSYVFGGGTKLTVLG
notes: human IgG1
- Reversal of human ANGPTL4 inhibition of human LPL EC50 [1]: 3 nM
- binding result [2]: no binding
- binding result [3]: no binding
- binding result [4]: no binding
- binding result [5]: no binding
- binding result [6]: no binding
- binding result [7]: no binding
- binding result [8]: no binding
- binding result [9]: no binding
- binding result [10]: no binding

B2: MOR021792 (antibody, human IgG1, lambda, V domains shown)
VH: QVQLLESGGGLVQPGGSLRLSCAASGFTFSDYAMDWVRQAPGKGLEWVSKISYDGSYTYYADSVKGRFTISRDNSKNTLYLQMNSLRAEDTAVYYCARPSMSYYIIPAGFDVWGQGTLVTVSS
VL: DIELTQPPSVSVSPGQTASITCSGDALGVKRASWYQQKPGQAPVLVIYKDNNRPSGIPERFSGSNSGNTATLTISGTQAEDEADYYCSVRTWSMNLYVFGGGTKLTVLG
- EC50 (read off the curve) [1(A] [11]: 1 to 2 nM
- binding result [12]: no binding (tested: 1 nM)

B3: MOR021798 (antibody, human IgG1, lambda, V domains shown)
VH: QVQLLESGGGLVQPGGSLRLSCAASGFTFSDYALHWVRQAPGKGLEWVSRISYMGSSTYYADSVKGRFTISRDNSKNTLYLQMNSLRAEDTAVYYCAREHYYSSPMGGVAVDNWGQGTLVTVSS
VL: DIVLTQPPSVSGAPGQRVTISCSGSSSNIGYNTVSWYQQLPGTAPKLLIYSNNIRPSGVPDRFSGSKSGTSASLAITGLQAEDEADYYCSSWDFLIKSLVFGGGTKLTVLG
notes: human IgG1
- EC50 (read off the curve) [1(C] [13]: ~3 nM
- binding result [12]: no binding (tested: 1 nM)
